Measured values as given in publication PMC2671563 (PLoS Biology, 2009).

Key:
[1] = biological target: T1, human S100A9 (Homo sapiens, UniProt P06702); assay: SPR: human S100A9 binding to immobilised ABR-224649 (Q compound), direct binding and displacement; settings: injected together with S100A9
T1 construct: made in house; host or cells: Escherichia coli (or purified from granulocytes)
T1 sequence (P06702 1-114): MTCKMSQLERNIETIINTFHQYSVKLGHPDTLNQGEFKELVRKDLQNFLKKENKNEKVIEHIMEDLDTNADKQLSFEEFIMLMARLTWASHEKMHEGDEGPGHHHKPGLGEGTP
Description: (§1) The SPR analysis was carried out with the Biacore 3000 system (GE Healthcare). Sensor chips, amine coupling kit, immobilization and running buffers, and regeneration solutions were obtained from GE Healthcare. Working solutions of all reagents used for Biacore analysis were prepared in 0.01 M Hepes, 0.15 M NaCl (pH 7.4) containing 0.005% v/v Surfactant P-20 (HBS-P; GE Healthcare) by buffer exchange on Fast Protein Desalting Micro-Spin Columns from Pierce. ABR-215757 was immobilised onto a CM5 chip through an amino-linker (ABR-224649). […] Activity of ligands after immobilisation was tested by injecting specific antibodies (unpublished data). In some experiments, S100A9 was immobilized either by random amine coupling or with a known orientation (i.e., by sulhydryl group conjugation to the only cysteine in S100A9 at position 3).
(§2) Binding to the various surfaces was performed by injecting the analyte at a flow rate of 30 μl/min in a physiological buffer (HBS-P) containing 1 mM Ca^2+ and 10 μM Zn^2+ as proposed for S100A8/9 by Robinson et al.. A typical analysis cycle consists of: (1) pumping running buffer for 1 min to obtain a stable baseline; (2) injection of sample for an appropriate period of time (association); (3) pumping running buffer for 2.5 min (dissociation); (4) injection of a short pulse (30 s) of 15 μl 10 mM glycine-HCl (pH 2.0) (regeneration); and (5) pumping running buffer for 2 min (stabilisation after regeneration) at a flow rate of 30 μl/min. […] In one experiment, S100A9 was injected into a buffer with a fixed Ca^2+ concentration (1 mM) and Zn^2+ in the range 0–50 μM. In a second experiment, Ca^2+ was varied from 0–2 mM at a fixed Zn^2+ concentration (10 μM). In subsequent analyses, regeneration was carried out under more mild conditions, i.e., by injecting 30 μl of HBS-P containing 3 mM EDTA (HBS-EP; GE Healthcare) for 60 s, to prolong the lifespan of the chip.
(§3) Compounds were also injected over the immobilised surfaces in the absence of S100A9 to exclude, or make possible correction for, any direct binding of compound to the surface.
(§4) Evaluation was carried out using BIAevaluation Software version 3.2 (GE Healthcare). The response at steady-state was obtained by fit of sensorgrams to standard binding models, where appropriate, or calculated as responses at late association or early dissociation phase using the Steady state affinity function in BIAevaluation. Affinity was determined from kinetic analysis (on- and off-rates) or as the apparent affinity after plotting responses versus concentration of analyte in a saturation curve. In the inhibition assay format, the competitor concentration yielding 50% inhibition (IC50) was calculated by fitting data to a one-site competition model in GraphPad Prism.

[2] = biological target: T2, human S100A9 binding to human TLR4/MD2 (Homo sapiens, UniProt P06702); assay: SPR: inhibition of human S100A9 binding to immobilised human TLR4/MD2; settings: for inhibition of hS100A9 binding to immobilised hTLR4/MD2: 100 nM hS100A9
T2 construct: purchased R&D Systems (TLR4/MD-2 complex); S100A9 made in house
T2 sequence (P06702 1-114): T1 sequence (P06702 1-114)
Description: as §1, §2, §3, §4

[3] = biological target: T3, human S100A9 binding to human RAGE (Homo sapiens, UniProt P06702); assay: SPR: inhibition of human S100A9 binding to immobilised human RAGE; settings: injected together with S100A9
T3 construct: purchased R&D Systems (RAGE/Fc); S100A9 made in house
T3 sequence (P06702 1-114): T1 sequence (P06702 1-114)
Description: as §1, §2, §3, §4

[4] = biological target: T4, hS100A9 (Homo sapiens, UniProt P06702); assay: SPR: analytes injected over immobilised hS100A9; type: binding; settings: 100 nM analyte, 1:1 model with mass transfer; read-out: KD, binding to immobilised hS100A9
T4 construct: made in house; host or cells: Escherichia coli (or purified from granulocytes)
T4 sequence (P06702 1-114): T1 sequence (P06702 1-114)
Description: as §1
(B) Left: 100 nM TLR4/MD2 or MD2 injected over amino-coupled hS100A9. […] Fab 43/8 was injected at 50–200 nM to verify activity of immobilized hS100A9 (right). […] (482 KB PDF) Click here for additional data file.

[5] = biological target: T5, recombinant human RAGE/Fc (human, UniProt Q15109 23-342); assay: SPR; S100 proteins injected (100 nM, or a range of concentrations; 30 ul/min) over human RAGE/Fc immobilised by amine coupling (~3,000 RU); HBS-P pH 7.4 with 1 mM Ca2+ and 10 uM Zn2+; fit to a 1:1 model with mass transfer; half-maximal binding from responses at late association (apparent); settings: both partners purified
T5 construct: RAGE (receptor for advanced glycation end products), human; human IgG1 Fc was used as the control for the Fc part; also called hRAGE; rhRAGE/Fc; source: bought: R&D Systems (carrier-free recombinant)
T5 sequence (Q15109 23-342): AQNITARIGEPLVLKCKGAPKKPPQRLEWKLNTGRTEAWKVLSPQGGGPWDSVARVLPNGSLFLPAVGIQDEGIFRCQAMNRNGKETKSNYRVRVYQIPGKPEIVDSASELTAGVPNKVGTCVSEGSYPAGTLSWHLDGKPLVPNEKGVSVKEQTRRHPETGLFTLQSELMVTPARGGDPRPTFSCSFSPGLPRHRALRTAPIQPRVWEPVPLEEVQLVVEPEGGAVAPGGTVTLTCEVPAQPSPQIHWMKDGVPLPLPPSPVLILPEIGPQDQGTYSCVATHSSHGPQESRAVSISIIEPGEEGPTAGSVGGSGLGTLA

[6] = biological target: T6, human TLR4/MD-2 complex (human, UniProt O00206 24-631; Q9Y6Y9 19-160); assay: SPR; 100 nM TLR4/MD2 or MD2 injected over amine-coupled hS100A9 (~5,000 RU); fit to a 1:1 model with mass transfer; settings: both partners purified
T6 construct: Toll-like receptor 4, human; MD-2, human; Soluble recombinant complex; also called hTLR4/MD-2; hTLR4/MD2; source: bought: R&D Systems (carrier-free recombinant)
T6 sequence (O00206 24-631, chain 1 of 2): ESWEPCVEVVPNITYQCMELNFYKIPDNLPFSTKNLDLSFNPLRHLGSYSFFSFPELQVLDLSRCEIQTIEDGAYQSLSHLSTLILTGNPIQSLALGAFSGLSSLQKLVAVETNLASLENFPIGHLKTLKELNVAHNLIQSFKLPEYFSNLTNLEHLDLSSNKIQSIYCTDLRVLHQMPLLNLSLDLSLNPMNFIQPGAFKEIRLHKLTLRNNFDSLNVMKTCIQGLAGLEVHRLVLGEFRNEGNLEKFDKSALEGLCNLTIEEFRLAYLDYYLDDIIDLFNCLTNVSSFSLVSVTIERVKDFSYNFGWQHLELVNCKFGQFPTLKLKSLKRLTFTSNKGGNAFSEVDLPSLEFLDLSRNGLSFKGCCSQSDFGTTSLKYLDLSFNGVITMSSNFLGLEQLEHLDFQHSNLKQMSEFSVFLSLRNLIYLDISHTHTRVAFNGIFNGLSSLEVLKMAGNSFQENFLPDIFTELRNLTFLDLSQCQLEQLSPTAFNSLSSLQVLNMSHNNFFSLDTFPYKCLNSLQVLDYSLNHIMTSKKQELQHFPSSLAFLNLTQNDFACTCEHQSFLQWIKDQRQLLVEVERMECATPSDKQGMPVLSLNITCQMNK
T6 sequence (Q9Y6Y9 19-160, chain 2 of 2): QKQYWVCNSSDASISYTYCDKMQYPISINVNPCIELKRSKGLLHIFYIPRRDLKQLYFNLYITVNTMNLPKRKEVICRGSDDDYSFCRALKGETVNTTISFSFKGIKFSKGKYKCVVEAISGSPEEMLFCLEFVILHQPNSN

[7] = biological target: T6, human TLR4/MD-2 complex; assay: SPR; S100 proteins injected (100 nM, or a range of concentrations; 30 ul/min) over human TLR4/MD2 immobilised by amine coupling (~3,000 RU); HBS-P pH 7.4 with 1 mM Ca2+ and 10 uM Zn2+; fit to a 1:1 model with mass transfer; half-maximal binding from responses at late association (apparent); settings: both partners purified

## sTLR4/MD2: recombinant human TLR4/MD-2 complex in solution
[1]
  inhibition of S100A9 interaction with immobilised Q compound by competitor in solution: inhibit
[2]; competitor 200 nM
  inhibition of hS100A9 binding to immobilised hTLR4/MD2: 55%
[2]; competitor 400 nM
  inhibition of hS100A9 binding to immobilised hTLR4/MD2: 78%
[2]; injected together with S100A9
  blocking of S100A9 interaction with immobilised TLR4 by competitor in solution: efficiently block
[3]
  inhibition of S100A9 interaction with immobilised RAGE by competitor in solution: inhibit
[4]
  Kd: 9.2 nM

B1: human S100A9 (natural protein, UniProt P06702 1-114, looked up)
chain: T1 sequence (P06702 1-114)
notes: S100A9, human; called homodimeric; also called hS100A9; homodimeric S100A9; source: either produced recombinantly in Escherichia coli or purified from granulocytes
[5]
  Kd: 38 nM
[6]
  Kd: 9.2 nM
[7]
  Kd: 2.1 nM
